One test relates to mdx mice. The test is described as follows: Weight of tibialis anterior muscles after intramuscular injection into dystrophic mdx mice. It counts as in vivo, mouse. Particulars: for Activity of decorin fragment on muscle growth (ability to increase muscle mass), in words: decorin fragments, intramuscular injection. As to the method: The protein used was recombinant mouse decorin (mDecorin) of sequence SEQ ID NO: 6, provided by R&D Systems. Twenty-four to forty hours before the injection, 100 μl of 150 mM sterile NaCl and 6 μl of 250 μM ZnCl2 were added to 100 μg of mDecorin powder. The final volume was 106 μl with a final concentration of approximately 1 μg/μl. For the injections into the control muscles a mixture was also prepared of 100 μl of 150 mM NaCl and 6 μl of 250 μM ZnCl2. All these solutions, after being vortexed, were stored at 4° C. In Vivo Injection mdx dystrophic ([…] muscular dystrophy) or gamma-sarcoglycan −/− mice were used that were at least 6 weeks old. 20 μg of mDecorin, i.e. 22 μl of the solution described above (20 μg Decorin+15 μM ZnCl2/22 μl NaCl), were injected into the left tibialis anterior (LTA), the muscle treated. 22 μl of the control solution described above (15 μM ZnCl2/22 μl NaCl) were administered into the control muscle, the right tibialis anterior (RTA). A specific number of days after injection, the mice were sacrificed and the RTA and LTA were removed, weighed then frozen for further histological study. Preparation and Injection of the Solution Containing the Peptide mDCN 31-71: […] It was dissolved at 2 mg/ml in 150 mM NaCl and stored at −80° C. For injections, the preparation protocol was identical to that used for the protein, i.e. 24-40 hours before injection, the desired amount of peptide was removed from the stock solution and mixed with a solution of zinc chloride (ZnCl2) and 150 mM NaCl, to produce a final zinc concentration of 15 μM. The injection protocol was identical to that used for the protein. The RTA and LTA muscles were collected 7 (D7), 14 (D14) or 21 (D21) days after the injection and weighed. The experiment was repeated on three separate mice each time. The results are summarised in the following tables: mdx Mice were Injected Intramuscularly into the TA with the Following Formulations: LTA 1: 65 μg peptide 41 DCN+15 μM ZnCl2/33 μl NaCl; RTA 2: 15 μM ZnCl2/33 μl NaCl. At D18, the mice were sacrificed and the weight of the RTA and LTA muscles was measured.

The subject of test [1] is gamma-sarcoglycan -/- mice. The test is described as follows: Weight of tibialis anterior muscles at D18 after intramuscular injection into dystrophic gamma-sarcoglycan -/- mice. Particulars: D18, one value per mouse. It counts as in vivo. As to the method:
The protein used was recombinant mouse decorin (mDecorin) of sequence SEQ ID NO: 6, provided by R&D Systems. Twenty-four to forty hours before the injection, 100 μl of 150 mM sterile NaCl and 6 μl of 250 μM ZnCl2 were added to 100 μg of mDecorin powder. The final volume was 106 μl with a final concentration of approximately 1 μg/μl. For the injections into the control muscles a mixture was also prepared of 100 μl of 150 mM NaCl and 6 μl of 250 μM ZnCl2. All these solutions, after being vortexed, were stored at 4° C. In Vivo Injection mdx dystrophic ([…] muscular dystrophy) or gamma-sarcoglycan −/− mice were used that were at least 6 weeks old. 20 μg of mDecorin, i.e. 22 μl of the solution described above (20 μg Decorin+15 μM ZnCl2/22 μl NaCl), were injected into the left tibialis anterior (LTA), the muscle treated. 22 μl of the control solution described above (15 μM ZnCl2/22 μl NaCl) were administered into the control muscle, the right tibialis anterior (RTA). A specific number of days after injection, the mice were sacrificed and the RTA and LTA were removed, weighed then frozen for further histological study. A second series of experiments was performed on four gamma-sarcoglycan −/− mice. The protocol was identical to that described for mdx mice. The mice were sacrificed on D18.

Several values for one entry are separate records, joined by “and”; a condition that tells them apart may be missing. Equal values may be shown once.

The text below walks through data of patent US9474782B2, “Use of decorin for increasing muscle mass” (Association Francaise contre les Myopathies, priority 2009, dated 2016).

Turning to “SEQ ID NO:15: fragment of 30 residues (residues 42 to 71 of murine decorin SEQ ID NO: 6) (DNPLISMCPYRCQCHLRVVQCSDLGLDKVP; murine 42-71 DCN)”, the “Activity of decorin fragment on muscle growth (ability to increase muscle mass), in words” value in the test on mdx mice is “also active”.
In the case of “mDCN 31-71: peptide (SEQ ID NO: 7) corresponding to residues 31-71 of murine decorin, zinc-binding N-terminal part, synthesised by NeoMPS (DEASGIIPYDPDNPLISMCPYRCQCHLRVVQCSDLGLDKVP; murine 31-71 DCN)”, the “Weight of treated muscle (LTA)” value in the test on mdx mice (65 μg peptide + 15 μM ZnCl2/33 μl NaCl intramuscular into left tibialis anterior, D18, one value per mouse) was 0.0583 g and 0.0468 g and 0.05 g. Moreover, the Growth in the test on mdx mice (65 μg peptide + 15 μM ZnCl2/33 μl NaCl intramuscular, treated LTA vs control RTA, D18, one value per mouse) is 8.77% and 19.39% and 24.69%. For the same molecule, in the test on mdx mice, the “Activity of decorin fragment on muscle growth (ability to increase muscle mass), in words” value is given as “had the required activity”.

B1: mDecorin: recombinant mouse decorin (mDecorin) of sequence SEQ ID NO: 6, provided by R&D Systems (protein)
chain: MKATLIFFLLAQVSWAGPFEQRGLFDFMLEDEASGIIPYDPDNPLISMCPYRCQCHLRVVQCSDLGLDKVPWDFPPDTTLLDLQNNKITEIKEGAFKNLKDLHTLILVNNKISKISPEAFKPLVKLERLYLSKNQLKELPEKMPRTLQELRVHENEITKLRKSDFNGLNNVLVIELGGNPLKNSGIENGAFQGLKSLSYIRISDTNITAIPQGLPTSLTEVHLDGNKITKVDAPSLKGLINLSKLGLSFNSITVMENGSLANVPHLRELHLDNNKLLRVPAGLAQHKYIQVVYLHNNNISAVGQNDFCRAGHPSRKASYSAVSLYGNPVRYWEIFPNTFRCVYVRSAIQLGNYK
modifications: murine DCN
For B1, the “Weight of treated muscle (LTA)” value was 0.0682 g and 0.0781 g and 0.0771 g in the test on mdx mice (20 μg mDecorin + 15 μM ZnCl2 intramuscular into left tibialis anterior, Day 7, one value per mouse); 0.1124 g and 0.103 g and 0.0911 g in the test with mdx mice (20 μg mDecorin + 15 μM ZnCl2 intramuscular into left tibialis anterior, Day 14, one value per mouse); 0.1041 g and 0.0943 g and 0.1003 g with mdx mice (20 μg mDecorin + 15 μM ZnCl2 intramuscular into left tibialis anterior, Day 21, one value per mouse); 0.0505 g and 0.0485 g and 0.0593 g and 0.0551 g in test [1] (20 μg mDecorin + 15 μM ZnCl2 intramuscular into left tibialis anterior). The “Growth in % (100*LTA/RTA) − 100” value in the test on mdx mice (20 μg mDecorin + 15 μM ZnCl2 intramuscular, treated LTA vs control RTA, Day 7, one value per mouse) is 3.18% and 0.90% and 2.94%. Moreover, the Growth in the test with mdx mice (20 μg mDecorin + 15 μM ZnCl2 intramuscular, treated LTA vs control RTA, Day 14, one value per mouse) is 58.98% and 48.41% and 6.67%; in test [1] (20 μg mDecorin + 15 μM ZnCl2 intramuscular, treated LTA vs control RTA) it was 10.75% and 17.43% and 12.31% and 24.10%. Besides, the “Growth (increase in muscle mass)” value in the test on mdx mice (20 μg mDecorin + 15 μM ZnCl2 intramuscular, treated LTA vs control RTA, Day 21, one value per mouse) is 53.09% and 66.31% and 37.21%; in the test on mdx mice (20 μg mDecorin + 15 μM ZnCl2 intramuscular, treated LTA vs control RTA, Day 21, one value per mouse, listed as decorin), 53.09% and 66.31%.
